Source: PMC3635990, “Vpu Binds Directly to Tetherin and Displaces It from Nascent Virions” (PLoS Pathogens, 2013)
Numbering of substitutions follows the chain as printed. Names and notes keep the numbering of the source.

B1: Tetherin^CC/SS-I46C-HA (natural protein)
chain: MASTSYDYSRVPMEDGDKRSKLLLGIGILVLLIIVILGVPLIIFTCKANSEACRDGLRAVMECRNVTHLLQQELTEAQKGFQDVEAQAATCNHTVMALMASLDAEKAQGQKKVEELEGEITTLNHKLQDASAEVERLRRENQVLSVRIADKKYYPSSQDSS
notes: Tetherin (Bst2/CD317/HM1.24), human; also called TetherinI46C; Teth^CC/SS-I46C-HA; source: HEK293T, co-transfected, in cells and lysate
B2: Tetherin^CC/SS-T45C-HA (natural protein)
chain: B1 chain with T45C, C46I
notes: Tetherin (Bst2/CD317/HM1.24), human; also called TetherinT45C; source: HEK293T, co-transfected, in cells and lysate

Target: the molecule itself
Experiment: cross-linking; unfractionated whole cell lysates of the oxidised, co-transfected 293T cells of Figure 1B; non-reducing SDS-PAGE (Bio-Rad), Western blot; monomer to dimer

| Protein | stoichiometry N |
| --- | --- |
| B1 | 2 |
| B2 | 2 |
